Assay results: patent publication US8927207B2, “miRNAs as therapeutic targets in cancer” (Research Foundation of State University of New York, priority 2008, dated 2015)

Columns and labels:
[1] = test system: DHFR mRNA; assay: real time qRT-PCR of DHFR mRNA after transfection; assay type: cell-based, human; settings: HCT-116 (wt-p53), 24 h after transfection, GAPDH normalized
Protocol: The analysis was performed as follows. Total RNA, including miRNA, was isolated from cell lines by using TRIzol reagent (Invitrogen) according to the manufacturer's instructions at 24 h after transfection. cDNA was synthesized with the High Capacity cDNA synthesis kit (Applied Biosystems) using 2 μg of total RNA as the template and random primers. Real-time qRT-PCR analysis was done on the experimental mRNAs. The PCR primers and probes for DHFR, and the internal control gene GAPDH were purchased from Applied Biosystems. qRT-PCR was done on an ABI 7500HT instrument under the following conditions: 50° C., 2 min of reverse transcription; 95° C., 10 min; 95° C., 15 sec; 60° C., 1 min. The reaction was done for up to 40 cycles (n=3). GAPDH was used as an internal standard for normalization.

[2] = test system: HCT-116 (wt-p53) cells; assay: WST-1 cell proliferation with MTX treatment after transfection; assay type: cell-based, human; settings: 72 hours
Protocol: HCT-116 (wt-p53) cells were plated in 96-well plates at 1×10^3 cells/well in triplicate. They were transfected with miR-192 precursor (FIG. 3, lane 4), non-specific control miRNA (FIG. 3, lane 2), or siRNA against DHFR (FIG. 3, lane 3) in 100 μl of medium. […] Ten microliters of WST-1 (Roche Applied Science) was added to each well. After 2 hours of incubation, absorbance was measured at 450 and 630 nm respectively (n=3).

[3] = test system: HCT-116 (wt-p53) cells; assay: cell cycle analysis by flow cytometry; assay type: cell-based, human; design: cell cycle profile G1/S / cell cycle profile G2/S: unit not given here
Protocol: To determine whether the miR-192's impact on cellular proliferation was related to cell cycle control, the effect on cell cycle control was analyzed by flow cytometry using HCT-116 (wt-p53) (FIG. 5A) and HCT-116 (null-p53) (FIG. 5B) cells transfected with non-specific control miR (left line graph) or miR-192 (right line graph). This experiment was performed as follows. The HCT-116 (wt-p53) and HCT-116 (null-p53) cells lines as described above (see Example 3) were transfected with miR-192 precursor and the non-specific control miRNA described as above (see Examples 1 and 2). At 36 hours after transfection, the cells were harvested and resuspended at 0.5-1×10^5 cells/ml in modified Krishan buffer containing 0.1% sodium citrate and 0.3% NP-40 and kept at 4° C. Before being analyzed by flow cytometry, cells were treated with 0.02 mg/ml RNase H and stained with 0.05 mg/ml propidium iodide (Sigma).
miR-215 induces G2-arrest in HCT-116 (wt-p53) and U-2 OS cells. To investigate the mechanism by which miR-215 suppressed cell proliferation in HCT-116 (wt-p53) and U-2 OS cells, the impact of miR-215 on cell cycle control was analyzed by flow cytometry at 36 h after transfection. HCT-116 (wt-p53), HCT-116 (null-p53), U-2 OS and MG63 cells were transfected with miR-215 precursor and the non-specific control miRNA described as above. At 36 h after transfection, cells were harvested and resuspended at 0.5-1 10^5 cells/ml in modified Krishan buffer containing 0.1% sodium citrate and 0.3% NP-40 and kept at 4° C. Before analysis by flow cytometry, cells were treated with 0.02 mg/ml RNase H and stained with 0.05 mg/ml propidium iodide (Sigma).

[4] = test system: Bax; assay: Western immunoblot of cell cycle control genes, HCT-116 (wt-p53); assay type: cell-based, human; settings: 48 hours after transfection
Protocol: (§1) miR-192 expression is dependent on p53. To further analyze the cell cycle control genes involved in miR-192 overexpression, a number of cell cycle control genes were analyzed (p53, p21, Bax, E2F3, Rb). HCT-116 (wt-p53) cells (FIG. 6A) and RKO (wt-p53) cells (FIG. 6B), as described above (see Example 3), were transfected with non-specific miR (FIG. 6A, lane 2; and FIG. 6B, lane 1), DHFR siRNA (FIG. 6A, lane 3; and FIG. 6B, lane 2) and miR-192 (FIG. 6A, lane 4; and FIG. 6B, lane 3) according to the procedure discussed above (see Examples 1 and 2). Non-transfected HCT-116 (wt-p53) was used as a negative control (FIG. 6A, lane 1). Alpha-tubulin was used as a protein loading control.

[5] = test system: p21; assay: as above; assay type: cell-based, human; settings: 48 hours after transfection
Protocol: as §1

[6] = test system: p53; assay: as above; assay type: cell-based, human; settings: 48 hours after transfection
Protocol: as §1

[7] = test system: E2F3; assay: Western immunoblot of E2F3, HCT-116 (wt-p53); assay type: cell-based, human
Protocol: The expression of miR-192 on the expression of E2F3 and Rb in HCT-116 (wt-p53) cells was also analyzed. In these experiments, HVT-116 (wt-p53) cells, as described above (see Example 3) were transfected with non-specific miR (FIG. 7, lane 2), DHFR siRNA (FIG. 7, lane 3) or miR-192 (FIG. 7, lane 4) according to the procedure described above (see Examples 1 and 2). One HCT-116 (wt-p53) sample was not transfected, and used as a negative control (FIG. 7, lane 1). Western immunoblot analysis was performed according to the procedure described above (see Example 5), except that rabbit anti-E2F-3 polyclonal antibody (1:1000, C-18) (Santa Cruz Biotechnology) was used.

[8] = test system: p53; assay: western immunoblot of p53 in HCT-116 (wt-p53) and U-2 OS cells; assay type: cell-based; settings: both HCT-116 (wt-p53) and U-2 OS cells, 48 h after transfection
Source text: miR-215 increases the expression of cell cycle control genes p53 and p21. p53 and p21, a downstream target of the p53 pathway of growth control, are reported to block cells at G2 checkpoint mainly through inhibiting activity of Cdc2, the cyclin-dependent kinase that normally drives cells into mitosis, which is the ultimate target of pathways that mediate rapid arrest in G2 in response to DNA damage. To further analyze the mechanism of cell proliferation inhibition by miR-215, we transfected miR-215 precursor into HCT-116 (wt-p53) and U-2 OS cells, and evaluated the levels of cell cycle control genes p53 and p21 by western immunoblot analysis.

[9] = test system: TS; assay: western immunoblot of TS protein after transfection; assay type: cell-based; settings: 48 hours after transfection
Protocol: At 48 h after transfection with miR-215, miR-192 precursors or non-specific control miRNA, the cells were scraped and lysed in RIPA buffer (Sigma). Equal amounts of proteins were resolved by SDS-PAGE on 12% gels by the method of Laemmli, and transferred to polyvinylidene fluoride membranes (BIO-RAD Laboratories). The membranes were then blocked by 5% nonfat milk in TBS-T (Tris-buffered saline and 0.5% Tween-20) at room temperature for 1 h. The primary antibodies used for the analysis included mouse anti-TS mAb (1:400, Millipore), mouse anti-DHFR mAb (1:250, BD Bioscience), mouse anti-p53 mAb (1:1000, DO-1), mouse anti-p21 mAb (1:1000, F-5), and mouse anti-α-tubulin mAb (1:1000, TU-02) purchased from Santa Cruz Biotechnology. Horseradish peroxidase—conjugated antibodies against mouse (1:1000, Santa Cruz Biotechnology) were used as the secondary antibodies. Protein bands were visualized with a chemiluminescence detection system using the Super Signal substrate (BIO-RAD).
At 48 hours after transfection, proteins were extracted from miR-215-transfected cells and from control cells and changes in TS or DHFR protein levels were determined by western immunoblot analysis (FIG. 14).

[10] = test system: TS mRNA; assay: real time qRT-PCR of TS mRNA; assay type: cell-based; settings: U-2 OS cells
Protocol: Expression levels of TS or DHFR mRNA were analyzed using real time qRT-PCR analysis (FIG. 15).

B1: miR-192: microRNA miR-192 (SEQ ID NO:1), transfected into cells as miR-192 precursor (Ambion) (nucleic acid)
chain: GCCGAGACCGAGUGCACAGGGCUCUGACCUAUGAAUUGACAGCCAGUGCUCUCGUCUCCCCUCUGGCUGCCAAUUCCAUAGGUCACAGGUAUGUUCGCCUCAAUGCCAGC
modifications: delivered as precursor, further chemistry not given here
Q: Which results are given for B1?
A: DHFR mRNA expression [1]: no reduction; effect in combination with MTX ([2]; MTX 25 nM): synergistic effect; cell proliferation reduced ([2]; transfected cells in combination with MTX 25 nM): ~70%; cell cycle profile G1 ([3]; 36 hours after transfection): 40.84%; cell cycle profile G1/S ([3]; 36 hours after transfection): 2.83; cell cycle profile G2 ([3]; 36 hours after transfection): 44.71%; cell cycle profile G2/S ([3]; 36 hours after transfection): 3.09; cell cycle profile S ([3]; 36 hours after transfection): 14.45%; G1 arrest ([3]; vs non-specific miR): > 2 fold; G2 arrest ([3]; vs non-specific miR): > 3 fold; expression of Bax [4]: not altered; increase in expression of p21 [5]: 10 fold; increase in expression of the p53 protein [6]: over 10 fold; expression of E2F3 [7]: decreased expression; p53 protein level [8]: significant increase; TS protein levels [9]: clearly decreases; TS mRNA expression [10]: no reduction
